Data set [1] has as its system HeLa Kyoto. In words: solubility in G1/S (NP-40 vs SDS abundance) (log2 ratio); higher = more soluble. To be noted: cell cycle stage: G1/S.
Data set [2] concerns HeLa Kyoto. As to the kind of experiment: solubility change mitosis vs G1/S (difference of NP-40 vs SDS log2 ratios) (log2 ratio difference); higher = more soluble in mitosis.
Data set [3] concerns HeLa Kyoto. In words: thermal stability score vs G1/S (z-score of summed log2 fold changes over temperatures); higher = more thermally stable than in G1/S.
The mark [4] stands for this setting: cell cycle stage: early G1 (4.5 h after nocodazole release).
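Throughout, for solubility change mitosis vs G1/S (difference of NP-40 vs SDS log2 ratios): synchronized HeLa Kyoto cells (double thymidine block for G1/S, nocodazole release for mitosis), protein amounts in NP-40 versus SDS lysates quantified by mass spectrometry, three biological replicates.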
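Throughout, for solubility in G1/S (NP-40 vs SDS abundance): HeLa Kyoto cells arrested at G1/S by double thymidine block, proteins quantified by TMT10plex mass spectrometry in mild NP-40 versus SDS extracts, three biological replicates.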
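Throughout, for thermal stability score vs G1/S (z-score of summed log2 fold changes over temperatures): synchronized HeLa Kyoto cells, proteins quantified by TMT10plex mass spectrometry, three biological replicates, mitosis taken 0.5 h after nocodazole release, G1/S directly after double thymidine block.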

In the case of “MFHCIPLWRCNRHVESIDKRHCSLVYVPEEIYRYARSLEELLLDANQLRELPEQFFQLVKLRKLGLSDNEIQRLPPEIANFMQLVELDVSRNEIPEIPESISFCKALQVADFSGNPLTRLPESFPELQNLTCLSVNDISLQSLPENIGNLYNLASLELRENLLTYLPDSLTQLRRLEELDLGNNEIYNLPESIGALLHLKDLWLDGNQLSELPQEIGNLKNLLCLDVSENRLERLPEEISGLTSLTDLVISQNLLETIPDGIGKLKKLSILKVDQNRLTQLPEAVGECESLTELVLTENQLLTLPKSIGKLKKLSNLNADRNKLVSLPKEIGGCCSLTVFCVRDNRLTRIPAEVSQATELHVLDVAGNRLLHLPLSLTALKLKALWLSDNQSQPLLTFQTDTDYTTGEKILTCVLLPQLPSEPTCQENLPRCGALENLVNDVSDEAWNERAVNRVSAIRFVEDEKDEEDNETRTLLRRATPHPGELKHMKKTVENLRNDMNAAKGLDSNKNEVNHAIDRVTTSV [LRRC1]”, the “solubility in G1/S (log2)” value in data set [1] was -0.0636. The “solubility change mitosis (log2)” value in data set [2] was -0.136. Further, the thermal stability score in data set [3] (setting [4]) is -0.136; in data set [3] (cell cycle stage: mitosis), -0.881.
For the sequence “MIDSVKLRRDSAADFFSHYEYLCALQNSVPLPAVRACLREGVLDFNADRLRGVDWAPLLSTLKINKDLPLVSIKSFFQPWLGDTGSDMNKFCRSRVPAIRYKDVTFQLCKALKGCLSISSVLKNLELNGLILRERDLTILAKGLNKSASLVHLSLANCPIGDGGLEIICQGIKSSITLKTVNFTGCNLTWQGADHMAKILKYQTMRRHEETWAESLRYRRPDLDCMAGLRRITLNCNTLIGDLGACAFADSLSEDLWLRALDLQQCGLTNEGAKALLEALETNTTLVVLDIRKNPLIDHSMMKAVIKKVLQNGRSAKSEYQWITSPSVKEPSKTAKQKRRTIILGSGHKGKATIRIGLATKKPVSSGRKHSLGKEYYAPAPLPPGVSGFLPWRTAERAKRHRGFPLIKTRDICNQLQQPGFPVTVTVESPSSSEVEEVDDSSESVHEVPEKTSIEQEALQEKLEECLKQLKEERVIRLKVDKRVSELEHENAQLRNINFSLSEALHAQSLTNMILDDEGVLGSIENSFQKFHAFLDLLKDAGLGQLATMAGIDQSDFQLLGHPQMTSTVSNPPKEEKKALEDEKPEPKQNALGQMQNIQFQKITGDARIPLPLDSFPVPVSTPEGLGTSSNNLGVPATEQRQESFEGFIARMCSPSPDATSGTGSQRKEEELSRNSRSSSEKKTKTESH [CEP78]”, in data set [1], the “solubility in G1/S (log2)” value is 0.0898. Further, the “solubility change mitosis (log2)” value in data set [2] came to 0.821. Also, the thermal stability score was 2.82 in data set [3] (setting [4]) and 3.49 in data set [3] (cell cycle stage: mitosis).
On the same counts, the results for “MKDYDELLKYYELHETIGTGGFAKVKLACHILTGEMVAIKIMDKNTLGSDLPRIKTEIEALKNLRHQHICQLYHVLETANKIFMVLEYCPGGELFDYIISQDRLSEEETRVVFRQIVSAVAYVHSQGYAHRDLKPENLLFDEYHKLKLIDFGLCAKPKGNKDYHLQTCCGSLAYAAPELIQGKSYLGSEADVWSMGILLYVLMCGFLPFDDDNVMALYKKIMRGKYDVPKWLSPSSILLLQQMLQVDPKKRISMKNLLNHPWIMQDYNYPVEWQSKNPFIHLDDDCVTELSVHHRNNRQTMEDLISLWQYDHLTATYLLLLAKKARGKPVRLRLSSFSCGQASATPFTDIKSNNWSLEDVTASDKNYVAGLIDYDWCEDDLSTGAATPRTSQFTKYWTESNGVESKSLTPALCRTPANKLKNKENVYTPKSAVKNEEYFMFPEPKTPVNKNQHKREILTTPNRYTTPSKARNQCLKETPIKIPVNSTGTDKLMTGVISPERRCRSVELDLNQAHMEETPKRKGAKVFGSLERGLDKVITVLTRSKRKGSARDGPRRLKLHYNVTTTRLVNPDQLLNEIMSILPKKHVDFVQKGYTLKCQTQSDFGKVTMQFELEVCQLQKPDVVGIRRQRLKGDAWVYKRLVEDILSSCKV [MELK]” are -0.42, 0.0602, -0.242 and 0.0849.
“MKEEAFLRRRFSLCPPSSTPQKVDPRKLTRNLLLSGDNELYPLSPGKDMEPNGPSLPRDEGPPTPSSATKVPPAEYRLCNGSDKECVSPTARVTKKETLKAQKENYRQEKKRATRQLLSALTDPSVVIMADSLKIRGTLKSWTKLWCVLKPGVLLIYKTPKVGQWVGTVLLHCCELIERPSKKDGFCFKLFHPLDQSVWAVKGPKGESVGSITQPLPSSYLIFRAASESDGRCWLDALELALRCSSLLRLGTCKPGRDGEPGTSPDASPSSLCGLPASATVHPDQDLFPLNGSSLENDAFSDKSERENPEESDTETQDHSRKTESGSDQSETPGAPVRRGTTYVEQVQEELGELGEASQVETVSEENKSLMWTLLKQLRPGMDLSRVVLPTFVLEPRSFLNKLSDYYYHADLLSRAAVEEDAYSRMKLVLRWYLSGFYKKPKGIKKPYNPILGETFRCCWFHPQTDSRTFYIAEQVSHHPPVSAFHVSNRKDGFCISGSITAKSRFYGNSLSALLDGKATLTFLNRAEDYTLTMPYAHCKGILYGTMTLELGGKVTIECAKNNFQAQLEFKLKPFFGGSTSINQISGKITSGEEVLASLSGHWDRDVFIKEEGSGSSALFWTPSGEVRRQRLRQHTVPLEEQTELESERLWQHVTRAISKGDQHRATQEKFALEEAQRQRARERQESLMPWKPQLFHLDPITQEWHYRYEDHSPWDPLKDIAQFEQDGILRTLQQEAVARQTTFLGSPGPRHERSGPDQRLRKASDQPSGHSQATESSGSTPESCPELSDEEQDGDFVPGGESPCPRCRKEARRLQALHEAILSIREAQQELHRHLSAMLSSTARAAQAPTPGLLQSPRSWFLLCVFLACQLFINHILK [OSBPL5]”: the “solubility in G1/S (log2)” value in data set [1] was -0.0107. Further, the “solubility change mitosis (log2)” value in data set [2] was determined as 0.12. Also, the thermal stability score in data set [3] (setting [4]) stood at 0.206; in data set [3] (cell cycle stage: mitosis) it was 0.353.
Taken in the same sequence, the figures for “MKGFKLSCTASNSNRSTPACSPILRKRSRSPTPQNQDGDTMVEKGSDHSSDKSPSTPEQGVQRSCSSQSGRSGGKNSKKSQSWYNVLSPTYKQRNEDFRKLFKQLPDTERLIVDYSCALQRDILLQGRLYLSENWICFYSNIFRWETLLTVRLKDICSMTKEKTARLIPNAIQVCTDSEKHFFTSFGARDRTYMMMFRLWQNALLEKPLCPKELWHFVHQCYGNELGLTSDDEDYVPPDDDFNTMGYCEEIPVEENEVNDSSSKSSIETKPDASPQLPKKSITNSTLTSTGSSEAPVSFDGLPLEEEALEGDGSLEKELAIDNIMGEKIEMIAPVNSPSLDFNDNEDIPTELSDSSDTHDEGEVQAFYEDLSGRQYVNEVFNFSVDKLYDLLFTNSPFQRDFMEQRRFSDIIFHPWKKEENGNQSRVILYTITLTNPLAPKTATVRETQTMYKASQESECYVIDAEVLTHDVPYHDYFYTINRYTLTRVARNKSRLRVSTELRYRKQPWGLVKTFIEKNFWSGLEDYFRHLESELAKTESTYLAEMHRQSPKEKASKTTTVRRRKRPHAHLRVPHLEEVMSPVTTPTDEDVGHRIKHVAGSTQTRHIPEDTPNGFHLQSVSKLLLVISCVICFSLVLLVILNMMLFYKLWMLEYTTQTLTAWQGLRLQERLPQSQTEWAQLLESQQKYHDTELQKWREIIKSSVMLLDQMKDSLINLQNGIRSRDYTSESEEKRNRYH [GRAMD1B]” were -0.0228, 0.151, -0.0752 and -0.742.

For the origin of these results see the supplement of paper PMC5998384.
